Reference: publication doi:10.1101/2022.07.07.22277364

Key:
Assay in all cases: BLI
[1] = molecular target: truncated human ACE2 (residues 19-613 with a C-terminal AviTag and 6xHis-tag), biotinylated (human) (UniProt Q9BYF1)
[2] = molecular target: human ACE2 polymorphism K26R (rs4646116) (human) (UniProt Q9BYF1)
[3] = molecular target: human ACE2 polymorphism S19P (rs73635825) (human) (UniProt Q9BYF1)

Substance	t1/2 [1] [min]	Kd [2] [nM]	Kd [3] [nM]
SARS-CoV-2 Omicron BA.2 RBD (from UniProt P0DTC2) (domain or fragment)	2.7	5.18	4.97
SARS-CoV-2 RBD Alpha (B.1.1.7), N501Y (from UniProt P0DTC2) (domain or fragment)	5.49	–	–
SARS-CoV-2 RBD Beta (B.1.351) (from UniProt P0DTC2) (domain or fragment)	2.75	–	–
SARS-CoV-2 RBD Gamma (P.1) (from UniProt P0DTC2) (domain or fragment)	3.58	–	–
SARS-CoV-2 ancestral RBD recombinant protein (from UniProt P0DTC2) (domain or fragment)	1.39	–	–
